Data from the DeepSol protein solubility set.

test: soluble on expression in E. coli; label from the status in PepcDB or PDB records

| Sequence | soluble on expression in E. coli |
| --- | --- |
| MSTSGSGGGNTPDLSKENVASSPNANPKKNADTESSGGSKNNRQRRRSNTKGDGSNSRNGSRTNSVSNSKNQSNRKDWTDRKSFSQGGINVKSKSPGDDHKRTRSSNSQSAKRNARDSTRTMSQASNGEGLDYSDEYELDEPFSDSDDEDSRPKKPEKMSLTVARGRIRTLSGTVPVVGYSPRWGGPTMCVSCLEFFDLPEQISGFADHLLKEHKIVVSEMNLIVDPKRYIEHWRQRFAKESIDKIFPRIEPSEGDSYFGETDYYYLMSENVAEDRSLRQRLAMRRLEEALQCQQREREDTSFQLQCIFCRYNARGNRSKIIHHLYMIHHLNLGSPDNLVFVTEYIEHLKEKLHRNECIYCEKIFPDRNTLMDHMRKRNHREVNPKNHYYDKFYIINYLELGKRWLDVLAEDFEDTMPTFQDSDEEEEDNEWCEWQEDNLDADETRVVCLLCDASEDNAQSLLEHMKTTHEFDLLKNVSDDKLNSYQRLRLINYIRKQNYHADCWVCQKTEFENPLALQKHILEHKPLSHLPDASIWDTEENLVPIFGNDHFLWMLESILEENEITCSSDDEGESEERFSKLVLESKSNTVEGVIAEDLPELSELNEDDLNALM | not soluble |
| MSTSLVDRLWYGQGRPLALLTPLAWLYRAVSESRRRKAWHARNESLPVPVVVVGNITAGGTGKSPLTASLVQCMNQHGWKPVILSRGYGGKSSQYPLLVADGTPAGVCGDEPLMLARATGCPVVVDPDRCRGARWALENGLGDVLICDDGLQHYRLPRDIELAVFDARRGTGNGAIIPVGPLREPVERLNSVDFVVLNGAEFPEAGETIESFAGVDHPEIHAMELVPSALVNLNSGETLSPEQLKGKPVRAVAGIGNPGRFFETLRNLGAHVNEVPFPDHHHFRPEDLASGALEWLVMTAKDAVKCHGFAPDNAWVLTVQARLSEPFEQHFLERLRASSGQLQTDISEESNHGLEHHHHHH | not soluble |
| MSTSSHTVLLIQTSPRLDSRTWGDYESVTDALDALCKMFEDFLSKKSAAPVTYDVSQVYEFLDKLSDVSMMIFNRETGQYIGRTRAWIKQQVYEMMRGRCQHPEGGEKVIVGY | not soluble |
| MSTVVEKSGEAKPGKVEVGVKLRGAEKVARIPVKIIPTEELPKKPDWIRVRIPVSPEVDRIKQLLRKHKLHSVCEEASCPNLGECFSGGTATFMIMGDICTRRCPFCDVGHGRPKPLDVDEPTNLAIAIADLRLKYVVITSVDRDDLRDGGAQHFADCLREIRKLSPGIQLETLVPDYRGRMDIALEITANEPPDVFNHNLETVPRLYRSSRPGSDFEWSLDLLQKFKQMVPHVPTKSGLMLGLGETDDEVIEVMQRMREHDIDMLTLGQYLQPSRNHLPVQRFVHPDTFAWFAEEGEKMGFKNVASGPLVRSSYHADQQAHGNKIG | not soluble |
| MSVESSNQTTSLSSYLLKCAFSFGTAPPSLSPPSSTGSYEEADFSRFVQQNETGHKLTSYQSLANRDPCTIPDELHQEMKSLKKKEEAFKTSLCGFHRRGQKCAYGEKCKFAHSVHELRFPQTKRNHRNYKTVLCNNFSTTGHCKYGIRCQFIHRSMDSTSSNQSNETENITIDLNVQSDVFRAFALDSTSSLPNWHCSALLH | not soluble |
| MSVFMDLNIINSSDKNRLKHIIETAAHLGYSTVAINYVVEPLQKKQEIPNPQSISDLFDKFPVVQGKSSPIKVLNRLTIVASDASHFRPTNEYKKFDLVAVYPKTEKLFHAACMTFDVDIICIAVTEKQPFHFKRAPVNGAIDRGIFFETCYAAAIRDSITRRYTIANAICLMEICKGKNVIVSSGAERQLELRGPYDIANLGLVFSLSEGDAKAAVSTNCRSVLLHGETRATASGVIHTMKKPQILQKEEEETPAAKKARTELA | soluble |
| MSVFSLKIDIADNKFFNGETSPLFSQSQAKLARQFHQKIAGYRPTPLCALDDLANLFGVKKILVKDESKRFGLNAFKMLGGAYAIAQLLCEKYHLDIETLSFEHLKNAIGEKMTFATTTDGNHGRGVAWAAQQLGQNAVIYMPKGSAQERVDAILNLGAECIVTDMNYDDTVRLTMQHAQQHGWEVVQDTAWEGYTKIPTWIMQGYATLADEAVEQMREMGVTPTHVLLQAGVGAMAGGVLGYLVDVYSPQNLHSIIVEPDKADCIYRSGVKGDIVNVGGDMATIMAGLACGEPNPLGWEILRNCATQFISCQDSVAALGMRVLGNPYGNDPRIISGESGAVGLGVLAAVHYHPQRQSLMEKLALNKDAVVLVISTEGDTDVKHYREVVWEGKHAVAP | not soluble |
| MSVITPTSSIAANDHRAQFLGLLDTSLSQNSLIKLVLAKYVGSEADLQRIIIKPLTVKEQPCLSFVYRYKTRDITKNFPLAEAVAVIASLIPESFKNAHLLSLSDEVQLEYSKKGKTTLFKSKAQQEREAPSAGHDREKKRYLELSRPFLADLGVTNRQHELIPAMSRKWKQINKFIEVFSHALSSSSLKLDQPIKVADFGSGKGYLTFAIHDYLCNTLQAQGQVTGVELREDMVTLCNNAAAGLEHPGLTFQHGDVRSVAPRALDVMIALHACDIATDYAIHMGIRSGASIIMCSPCCHKQIRLQIQSPSLLKPMLQYGLHMGQQAEMVTDSLRALLLDACGYETKVFEFISLEHTNKNKMILAVKRAEPANPAQLLVRIQELKAFYGISEQCLETLLQADGFLG | not soluble |
| MSVKVIVTDMDGTFLNDAKTYNQPRFMAQYQELKKRGIKFVVASGNQYYQLISFFPELKDEISFVAENGALVYEHGKQLFHGELTRHESRIVIGELLKDKQLNFVACGLQSAYVSENAPEAFVALMAKHYHRLKPVKDYQEIDDVLFKFSLNLPDEQIPLVIDKLHIALDGIMKPVTSGFGFIDLIIPGLHKANGISRLLKRWDLSPQNVVAIGDSGNDAEMLKMARYSFAMGNAAENIKQIARYATDDNNHEGALNVIQAVLDNTSPFNS | not soluble |
| MSVNNIDQLLGELKSAAALASGKQAPAAQQTPQVDFSDVLKSTIEQVNSAQQTSEEMQKQFQLGDNKEVNLQDVMMSLQKASLSFQTMVQARNKLVSAYQEIMNTQV | not soluble |
| MSVVEEATDDALYPIAVLIDELRNEDVTLRLNSIRKLSTIALALGVERTRNELIQFLTDTIYDEDEVLLVLAEQLGNFTPLVGGPDHVHCLLLPLENLATVEETVVRDKAVESLRKIADKHSSASLEEHFVPMLRRLATGDWFTSRTSACGLFSVVYPRVSPAIKSELKSMFRTLCRDDTPMVRRAAAAKLGEFAKVFEKTAVIEGLHSSLTDLHVDEQDSVRLLTVESAIAFGTLLDKANKKKLIEPILIELFDDKSWRVRYMVAEKLIEIQNVLGEDMDTTHLVNMYTNLLKDPEGEVRCAATQRLQEFALNLPEDKRQNIICNSLLNVAKELVTDGNQLVKSELAGVIMGLAPLIGKEQTVSELLPIYMQLLNDQTPEVRLNIISSLDKVNEVIGAAQLSTSLLPAIVGLAEDGKWRVRLAIVQFMPLLASQLGQEFFDEKLLPLCLNWLTDHVFSIREASTLIMKELTQKFGGQWASTNIVPKMQKLQKDTNYLQRMTCLFCLNTLSEAMTQEQILKEIMPIVKDLVEDDVPNVRFNAAKSLKRIGKNLTPSTLTSEVKPLLEKLGKDSDFDVRYFSEEAKNSLGL | not soluble |
| MSWQQRVDDALTARRVTDTLRRRYVVSQGAGRWLVANGRQYLNFSSNDYLGLSQHPQIIRAWQQAATRFGVGSGGSGHISGYSVAHQALEEELAQWLGYPRALLFISGFAANQAVITALMKKNDRIVADRLSHASLLEAANLSPAQLRRFIHNDTQHLSRLLQSPCVGQQLVVTEGVYSMDGDSAPLAEIQHIARRHHAWLLVDDAHGIGVTGDEGRGTCWLRGVKPELLVVTFGKGFGVSGAAVLCSESVADYLLQFARHLVYSTSMPPAQAQALSASLAVIRSDEGGERREKLAALVQRFRAGVNASRFTLLNAHSAIQPLIVGDNSRALRLAEALRQQGCWATAIRPPTVPVGTARLRLTLTQAHEACDIDRLLEVLHGAGE | not soluble |
| MSWQTYVDDHLMCDIDGHRLTAAAIIGHDGSVWAQSSSFPQFKSDEVAAVMKDFDEPGSLAPTGLHLGGTKYMVIQGEPGAVIRGKKGSGGITVKRTGQALIIGIYDEPLTPGQCNMIVERLGDYLLDQGL | soluble |
| MSWRYSILTVDGSFKIFIPWEIFLTWNFLSAAWLNSTESNTYIHYSTCWGTSDYTLNISVIEATTEKLVDTRLLTTLENATAWINSNSIDEDEDDMPHATNVADRLDGLSLSKRVYSICHYEF | not soluble |
| MSYDVIVRNGLWFDGTGRPPQVRTLGIRDGVVATVSAKPLDETGCPEVIDAGGKWVVPGFIDVHTHYDAEVLLDPGLRESVRHGVTTVLLGMCSLSTVYSDAEDAADLFSRVEAVPRQFVLGALESRKTWSNPAEYVAAIDALPLGPNIASLLGHSDLRASVLGLDRATTRGVVPTDDELETMADRLDAALDAGMLGMSGMDAAIDKLDGDRFRSRALPSTFATWRERRRLIKVLRKRGRILQSAPNVAKAQEALNFFLESSSLFGRRRGVRMSLLVSADAKSSPGAARVIGMGTRLLNKTLDAKVRFQHLPVPFELYSDGIDLPVFEEFGAGTAALHLRDQLERNKLLADPEYRRRFRRSFDRRKLGPTLWHRDFHDATIVECPDESLIGKTFGRIADERGIHPLDAFLDVLVDNGEKNVRWTTIVANHRPKVLDQLANDPAVHMGFSDAGAHLRNMAFYNYPLRLLKRVRDAQLSGRPFLTTERAVYRLTAEVADWFGVDAGTLREGDRADFVVIDPNCLNSDVDAYHEETVPFYGGLSRMVNRNDDAVVATAVNGTVVFGKGEFRDGYGDTVKSGRYLRAGADSRLKTAVLEHHHHHH | not soluble |
| MSYGPQLPAFLMKGQIKENEVDDEAEEGAPQVYGPVIPGMEEPKNEKEKHDDQEETSVFGPSIPKEVREKLQNVENPAEDDEEDEEFPSQSYGPSIPSNFRPTVGPSIPGTFGDDSDEDIGPMPVAKGDEEKEAIDRAYRMVLQKEAEDDEKNFQPKREEWMTSVPKKLGNFGLGARTFKKGTTSERDASWEDAPGAKKRRNEETRSARSVGIAAADARQAAIVAEKTSGPSLLEIHQKKRDEKVKDAGYAQGERRPFDREKDMEVRGLKPGGSKEAVDRMKEFADRFANSKDQRFL | not soluble |
| MSYPATRAEQVVDTLHGVQVADPYRWLEDEKAPEVQTWMTAQNAHAREALAKFPGREALAARFKELFYTDSVSTPSRRNGRFFYVRTHKDKEKAILYWRQGESGQEKVLLDPNGWSKDGTVSLGTWAVSWDGKKVAFAQKPNAADEAVLHVIDVDSGEWSKVDVIEGGKYATPKWTPDSKGFYYEWLPTDPSIKVDERPGYTTIRYHTLGTEPSKDTVVHERTGDPTTFLQSDLSRDGKYLFVYILRGWSENDVYWKRPGEKDFRLLVKGVGAKYEVHAWKDRFYVLTDEGAPRQRVFEVDPAKPARASWKEIVPEDSSASLLSVSIVGGHLSLEYLKDATSEVRVATLKGKPVRTVQLPGVGAASNLMGLEDLDDAYYVFTSFTTPRQIYKTSVSTGKSELWAKVDVPMNPEQYQVEQVFYASKDGTKVPMFVVHRKDLKRDGNAPTLLYGYGGFNVNMEANFRSSILPWLDAGGVYAVANLRGGGEYGKAWHDAGRLDKKQNVFDDFHAAAEYLVQQKYTQPKRLAIYGGSNGGLLVGAAMTQRPELYGAVVCAVPLLDMVRYHLFGSGRTWIPEYGTAEKPEDFKTLHAYSPYHHVRPDVRYPALLMMAADHDDRVDPMHARKFVAAVQNSPGNPATALLRIEANAGHGGADQVAKAIESSVDLYSFLFQVLDVQGAQGGVAAQGRHHHHHH | soluble |
| MSYPMTPVKRPTISHGIQASDGIIKRPIEGNKKRLSAPIKDKPEHRIAPEEITNAPTTSRLRRAPEFDVVVIMKTTKKDRKKIIQTPRRRSIKLANVPMTPKTAPIRRHSTGGNAAMSTPKRRKSFGSLAPVRQHRVETRKVVRNLMAVRPPLCF | soluble |
